From US20230391892A1 (published 2023)

What was measured:
A119 = A119 (Homo sapiens (Human), UniProt P0DOX7 1-214); experiment: BLI (Octet RED96), antagonist captured on biosensor, ligand in solution
Method: (§1) Binding activities of individual bifunctional antagonists to human ligands were measured by biolayer interferometry (BLI) using Octet RED96 (FortéBIO, Pall Corporation, USA). Binding analysis was performed by first capturing the polypeptide bifunctional antagonists to biosensors. To measure the rate of association and dissociation, the bifunctional antagonists-captured biosensors were dipped in wells containing different concentrations of ligands (such as TNF-α, TGF-β1 and TGF-β3) diluted in 1× kinetic buffer for 10 min followed by 10-20 min in 1× kinetic buffer. Note that all the ligands tested were recombinantly produced based on their human sequences. The bifunctional polypeptide antagonists-captured sensors were also submerged in wells containing 1×kinetic buffer to allow single reference subtraction in order to compensate for natural dissociation of the captured bifunctional antagonists. The binding sensorgrams were collected using the 8-channel detection mode on the biosensor. Data were acquired and analyzed using the FortéBIO Data acquisition software v11.1 (FortéBIO, Pall Corporation, USA)

A120 = A120 (Homo sapiens (Human), UniProt P0DOX7 1-214); experiment: as above
Method: as §1

- Kd (A119): ~1 pM
- Kd (A120): ~1 pM
B1: TGF-β3 (ligand)
chain: ALDTNYCFRNLEENCCVRPLYIDFRQDLGWKWVHEPKGYYANFCSGPCPYLRSADTTHSTVLGLYNTLNPEASASPCCVPQDLEPLTILYYVGRTPKVEQLSNMVVKSCKCS
notes: also called Transforming Growth Factor-Beta 3
